Patent US20140148381A1 (INDIANA UNIVERSITY RESEARCH AND TECHNOLOGY, published 2014)

What was measured:
[1] = molecular target: HBV Cp149-WT (wild type HBV core protein assembly domain, N-terminal first 149 residues), dimer (Hepatitis B virus, adyw strain); experiment: SEC of capsid and dimer after 72 h assembly at 100 mM NaCl, 23° C.; self-association of Cp149 dimers
[2] = molecular target: HBV Cp149-WT (wild type HBV core protein assembly domain, N-terminal first 149 residues), dimer (Hepatitis B virus, adyw strain); experiment: SEC of assembly reactions, 100 mM NaCl, 23° C.
[3] = molecular target: HBV Cp149-WT (wild type HBV core protein assembly domain, N-terminal first 149 residues), dimer (Hepatitis B virus, adyw strain); experiment: SEC of capsid and dimer after 72 h assembly at 100 mM NaCl, 23° C.; mean equilibrium dimer concentration
[4] = molecular target: HBV wild type core protein expressed in Huh7 cells (subtype ayw) (Hepatitis B virus, subtype ayw) (UniProt P03146); experiment: cell-based or functional assay
[5] = molecular target: the molecule itself; experiment: SEC of assembly reactions, 100 mM NaCl, 72 h, 23° C.; 100 mM NaCl, 72 h, 23° C.; ratio of WT to V124W pseudo-critical concentration
[6] = molecular target: the molecule itself; experiment: SEC of capsid and dimer after 72 h assembly at 100 mM NaCl, 23° C.; self-association of Cp149-V124W dimers; 100 mM NaCl, 23° C., SEC after 72 h equilibration; Table 3 value
[7] = molecular target: the molecule itself; experiment: thermodynamic calculation from SEC, 23° C., 100 mM NaCl; 100 mM NaCl, 23° C.; value in the text, which differs from Table 3

Molecule: HBV Cp149-WT (wild type HBV core protein assembly domain, N-terminal first 149 residues), dimer
- ΔGcontact [1]: -2.74 kcal/mol
- pseudo-critical concentration [2]: 43.6 µM
- KD, apparent [3]: 43.3 µM

Molecule: HBV V124W core protein expressed in Huh7 cells (subtype ayw) (from UniProt P03146 1-183)
- dlDNA yield, Southern blot of encapsidated DNA, WT:V124W = 1:1 co-transfection in Huh7 cells [4]: 23 % of WT
- rcDNA yield, Southern blot of encapsidated DNA, WT:V124W = 1:1 co-transfection in Huh7 cells [4]: 8 % of WT
- ssDNA yield, Southern blot of encapsidated DNA, WT:V124W = 1:1 co-transfection in Huh7 cells [4]: 37 % of WT
- total DNA yield, Southern blot of encapsidated DNA, WT:V124W = 1:1 co-transfection in Huh7 cells [4]: 31 % of WT

B1: HBV Cp149-V124W (core protein assembly domain with V124W), dimer (other)
chain: MDIDPYKEFGATVELLSFLPSDFFPSVRDLLDTAAALYRDALESPEHCSPHHTALRQAILCWGDLMTLATWVGTNLEDPASRDLVVSYVNTNVGLKFRQLLWFHISCLTFGRETVLEYLVSFGWWIRTPPAYRPPNAPILSTLPETTVV
notes: also called HBV Cpdominant 1; Cpdominant 1
- fold difference of pseudo-critical concentration against WT [5]: 40 fold
- ΔGcontact [6]: -3.84 kcal/mol
- ΔGcont [7]: -3.73 kcal/mol
